Tests used:
[1] = molecular target: T1, TOM20-Human 胞质结构域蛋白(25-145) (human, UniProt Q15388 25-145); assay: phage clone ELISA, crude phage nanobody extract on coated TOM20 against BSA control
T1 construct: range 25-145; A purification tag (Ni column) is implied but not described; also called TOM20胞质结构域
T1 sequence (looked up): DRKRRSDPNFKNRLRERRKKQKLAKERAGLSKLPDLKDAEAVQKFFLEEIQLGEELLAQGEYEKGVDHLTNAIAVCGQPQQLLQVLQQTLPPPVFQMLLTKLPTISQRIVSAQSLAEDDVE

TOM20-Mouse 胞质结构域 = molecular target: T2, TOM20-Mouse 胞质结构域 (mouse, UniProt Q9DCC8 25-145); assay: SPR (Biacore), antigen immobilised on chip, nanobody as analyte
T2 construct: domain: 胞质结构域; also called TOM20(鼠)胞质结构域
T2 sequence (looked up): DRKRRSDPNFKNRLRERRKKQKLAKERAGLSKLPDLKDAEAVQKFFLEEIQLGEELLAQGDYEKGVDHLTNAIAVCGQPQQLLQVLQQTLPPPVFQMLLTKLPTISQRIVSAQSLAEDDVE

[2] = molecular target: T1, TOM20-Human 胞质结构域蛋白(25-145); assay: as above

TOM20/BSA ratio [1]: ~3 fold | Kd (TOM20-Mouse 胞质结构域): 0.413 µM | Kd [2]: 0.0448 µM
B1: P2B7号纳米抗体 (VHH)
VHH: AVQLVESGGGLVQAGGSLRLSCVASGSTFSNFVMGWYRQAPGKQRVLVATISSGGSTNYADSVKGRFTISRDNTKNTVYLQMNSLKPEDTSVYYCNARRGSVIVPTLAYDYWGQGTQVTVSS
notes: Alpaca naive-library nanobody expressed in E. coli with an HA tag for detection and purified on Ni resin; also called P2B7纳米抗体; TOM20纳米抗体; not shown: fused HA tag and vector-derived His tag (PET-14B or PET28a-sumo)
